# In patent US20250277059A1, “ANTIBODY USED TO TREAT CORONAVIRUS INFECTION” (priority 2022, published 2025):
# Where two headings read alike, the source gives them in different places.
# T1: TMPRSS-11D (human, UniProt O60235)
# T1 sequence (single chain, looked up): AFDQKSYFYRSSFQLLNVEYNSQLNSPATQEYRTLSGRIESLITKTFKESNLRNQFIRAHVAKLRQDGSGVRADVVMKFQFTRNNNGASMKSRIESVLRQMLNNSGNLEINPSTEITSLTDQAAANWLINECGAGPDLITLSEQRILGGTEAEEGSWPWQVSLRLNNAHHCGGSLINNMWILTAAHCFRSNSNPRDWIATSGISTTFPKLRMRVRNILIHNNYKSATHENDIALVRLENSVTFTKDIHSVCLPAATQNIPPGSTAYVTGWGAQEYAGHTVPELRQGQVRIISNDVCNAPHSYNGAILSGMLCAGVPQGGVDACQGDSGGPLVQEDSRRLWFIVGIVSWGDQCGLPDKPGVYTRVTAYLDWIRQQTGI
# T2: TMPRSS-11E (human, UniProt Q9UL52)
# T2 sequence (single chain, looked up): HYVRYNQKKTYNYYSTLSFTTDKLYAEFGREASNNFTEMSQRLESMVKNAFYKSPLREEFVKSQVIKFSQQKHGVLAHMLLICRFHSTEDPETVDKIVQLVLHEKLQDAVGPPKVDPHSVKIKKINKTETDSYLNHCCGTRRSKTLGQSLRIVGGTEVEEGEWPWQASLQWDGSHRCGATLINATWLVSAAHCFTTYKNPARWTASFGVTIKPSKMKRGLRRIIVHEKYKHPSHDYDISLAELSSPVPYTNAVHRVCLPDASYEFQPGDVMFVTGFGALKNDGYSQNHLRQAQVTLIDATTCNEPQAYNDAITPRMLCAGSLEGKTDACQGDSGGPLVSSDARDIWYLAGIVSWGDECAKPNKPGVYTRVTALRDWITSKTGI
# T3: TMPRSS-13 (human, UniProt Q9BYE2)
# T3 sequence (single chain, looked up): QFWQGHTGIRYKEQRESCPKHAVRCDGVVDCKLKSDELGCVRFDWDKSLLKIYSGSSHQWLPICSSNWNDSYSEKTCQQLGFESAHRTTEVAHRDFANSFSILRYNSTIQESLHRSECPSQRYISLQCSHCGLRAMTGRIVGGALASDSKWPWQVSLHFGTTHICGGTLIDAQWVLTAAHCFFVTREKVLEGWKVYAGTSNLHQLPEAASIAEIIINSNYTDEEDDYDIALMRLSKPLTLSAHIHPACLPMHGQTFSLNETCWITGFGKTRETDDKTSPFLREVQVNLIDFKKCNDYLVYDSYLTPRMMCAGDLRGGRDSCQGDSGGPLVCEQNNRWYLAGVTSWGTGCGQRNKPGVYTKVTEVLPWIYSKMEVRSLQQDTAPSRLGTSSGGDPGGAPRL
# Legend:
# [1] = biological target: T4, Mouse TMPRSS2 expressed on cells (mouse, UniProt Q9JIQ8 1-490); experiment: flow cytometry, Daudi transfectant
# [2] = biological target: Cynomolgus monkey TMPRSS2 expressed on cells (cynomolgus monkey); experiment: flow cytometry, Daudi transfectant
# [3] = biological target: Human TMPRSS2 expressed on cells (human) (UniProt O15393); experiment: flow cytometry, Daudi transfectant
# [4] = biological target: Human TMPRSS2 expressed on cells (human) (UniProt O15393); experiment: flow cytometry, COS7 transfectant; Q1 23.3
# [5] = biological target: T5, Human TMPRSS2 recombinant protein, extracellular region (N-terminal His tag, C-terminal Strep-tag II) (human, UniProt O15393 106-492); experiment: SPR (BIAcore), captured mAb, soluble human TMPRSS2 extracellular region
# T5 construct: also called Human TMPRSS2 recombinant proteins; extracellular region of human TMPRSS2
# [6] = biological target: T5, Human TMPRSS2 recombinant protein, …; experiment: SPR (BIAcore); rounded repeat of Table 1
# [7] = biological target: T6, Human TMPRSS2 expressed on cells (human, UniProt O15393 1-492); experiment: cell-based or functional assay
# [8] = biological target: T6, Human TMPRSS2 expressed on cells; experiment: cell-based or functional assay; remark: listed apart in the source
# [9] = biological target: T4, Mouse TMPRSS2 expressed on cells; experiment: flow cytometry, Daudi transfectant; remark: listed apart in the source
# TMPRSS-11D = biological target: T1, TMPRSS-11D; experiment: ELISA, Strep-tagged protein on streptavidin plate
# TMPRSS-11E = biological target: T2, TMPRSS-11E; experiment: ELISA, Strep-tagged protein on streptavidin plate
# TMPRSS-11F = TMPRSS-11F (human, UniProt Q6ZWK6); experiment: ELISA, Strep-tagged protein on streptavidin plate
# TMPRSS-13 = biological target: T3, TMPRSS-13; experiment: ELISA, Strep-tagged protein on streptavidin plate
# F321A = biological target: T7, F321A (human, UniProt O15393); experiment: flow cytometry, COS7 transfectant
# T7 construct: expressed on COS7 cells with GFP via IRES; also called TMPRSS2 alanine substitution F321A; RQSFMA
# [10] = biological target: T6, Human TMPRSS2 expressed on cells; experiment: flow cytometry, COS7 transfectant
# [11] = biological target: T4, Mouse TMPRSS2 expressed on cells; experiment: flow cytometry, Daudi transfectant; remark: listed apart in the source
# [12] = biological target: T6, Human TMPRSS2 expressed on cells; experiment: flow cytometry, Daudi transfectant
# human TMPRSS2 [13] = biological target: T8, human TMPRSS2 (Homo sapiens, UniProt O15393); experiment: Competitive inhibition between anti-TMPRSS2 mAbs (flow cytometry); assay type: binding; conditions: FIG. 3B
# Target sequence in this assay (O15393 whole entry): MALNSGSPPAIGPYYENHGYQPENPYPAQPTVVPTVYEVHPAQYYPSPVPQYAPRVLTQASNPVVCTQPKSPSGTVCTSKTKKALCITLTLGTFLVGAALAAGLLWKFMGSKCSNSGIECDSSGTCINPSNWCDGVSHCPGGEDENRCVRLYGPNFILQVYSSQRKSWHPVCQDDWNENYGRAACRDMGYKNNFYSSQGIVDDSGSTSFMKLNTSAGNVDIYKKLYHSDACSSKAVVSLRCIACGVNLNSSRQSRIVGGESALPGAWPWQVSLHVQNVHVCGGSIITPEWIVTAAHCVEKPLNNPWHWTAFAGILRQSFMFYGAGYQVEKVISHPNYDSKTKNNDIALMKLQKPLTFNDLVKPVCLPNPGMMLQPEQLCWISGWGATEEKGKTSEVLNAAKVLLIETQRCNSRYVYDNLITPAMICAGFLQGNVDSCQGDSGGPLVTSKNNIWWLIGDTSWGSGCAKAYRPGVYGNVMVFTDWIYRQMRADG
# human TMPRSS2 [14] = biological target: T8, human TMPRSS2; experiment: BIACore binding assay of anti-TMPRSS2 antibodies; conditions: Table 1, mouse mAbs, 25° C.
# Target sequence in this assay (O15393 106-492 limits assumed): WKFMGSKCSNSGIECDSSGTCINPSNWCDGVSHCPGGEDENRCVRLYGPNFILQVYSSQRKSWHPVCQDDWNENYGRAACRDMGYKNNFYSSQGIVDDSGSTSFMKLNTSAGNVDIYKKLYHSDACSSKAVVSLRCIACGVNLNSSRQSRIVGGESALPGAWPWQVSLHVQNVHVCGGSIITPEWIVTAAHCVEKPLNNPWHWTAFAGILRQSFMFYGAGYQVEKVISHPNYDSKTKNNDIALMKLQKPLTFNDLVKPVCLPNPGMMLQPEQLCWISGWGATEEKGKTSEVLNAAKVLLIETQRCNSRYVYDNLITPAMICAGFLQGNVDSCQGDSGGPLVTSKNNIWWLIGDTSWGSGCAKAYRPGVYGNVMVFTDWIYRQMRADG
# [15] = biological target: T9, amino acid sequence set forth in SEQ ID NO: 85 ([…]) (Homo sapiens, UniProt O15393); experiment: Epitope mapping by peptide array; assay type: binding; conditions: 20-meric peptide array, FIGS. 5A to 5B
# T9 construct: purchased JPT Peptide Technologies GmbH; host or cells: synthetic peptides on glass slide
# [16] = system: human TMPRSS family proteins; experiment: Binding properties to TMPRSS family; conditions: FIG. 9
# Experimental: The reactivity of anti-TMPRSS2 mAbs to extracellular regions of human TMPRSS family proteins was analyzed by ELISA method. To a streptavidin-coated 96-well plate (Thermo Scientific, 436014), 100 μl each of 78 nM Strep-tagged recombinant proteins in PBS was captured at room temperature for 2 hours and washed 5 times with PBST (0.1% Tween 20/PBS). Anti-TMPRSS2 mAbs (10 μg/mL), mouse IgG (Equitech-Bio, SLM66) or Ni-NTA-HRP (KPL, 24-01-01) as controls, diluted to 0.2% BSA in PBST was added thereto to incubate for 2 hours. After washing with PBST, the bound IgG was detected with 100 μl horseradish peroxidase Goat anti-mouse IgG antibody (BioLegend, Inc.) diluted to 1:15,000 in PBST at room temperature for 1 hour and washed with PBST. 100 μl TMB substrate solution (SeraCare Life Sciences, Inc. 5120-0077) was added to the well and allowed to color at room temperature for a few minutes. The reaction was stopped with 100 μl 2M H2SO4. The optical density (OD) was read at 450 nm while referring to OD with a microplate reader (ARVO ×3, PerkinElmer, Inc.).
# mouse TMPRSS2 = biological target: T10, mouse TMPRSS2 (Mus musculus, UniProt Q9JIQ8); experiment: FACS cross-reactivity to mouse TMPRSS2; assay type: binding; conditions: FIGS. 10C and 10D
# T10 construct: expressed in transfected cells; host or cells: Daudi
# [17] = system: TMPRSS2 of non-human animal species; assay type: binding; conditions: Table 3; species whose TMPRSS2 is bound
# T4 sequence (Q9JIQ8 whole entry): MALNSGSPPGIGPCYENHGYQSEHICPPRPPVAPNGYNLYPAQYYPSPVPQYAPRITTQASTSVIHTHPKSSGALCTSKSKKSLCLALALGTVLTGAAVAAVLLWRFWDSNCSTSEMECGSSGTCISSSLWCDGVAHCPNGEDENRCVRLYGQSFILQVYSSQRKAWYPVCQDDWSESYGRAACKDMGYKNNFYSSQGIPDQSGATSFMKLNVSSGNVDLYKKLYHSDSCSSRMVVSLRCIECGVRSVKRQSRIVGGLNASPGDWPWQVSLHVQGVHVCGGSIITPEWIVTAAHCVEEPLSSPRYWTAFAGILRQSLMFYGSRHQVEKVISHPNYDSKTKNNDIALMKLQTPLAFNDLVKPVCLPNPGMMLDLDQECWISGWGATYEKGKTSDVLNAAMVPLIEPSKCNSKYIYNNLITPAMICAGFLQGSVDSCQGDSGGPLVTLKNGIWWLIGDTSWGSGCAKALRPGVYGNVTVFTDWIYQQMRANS
# T5 sequence (O15393 other isoform, or with tags, fused parts or gaps limits assumed): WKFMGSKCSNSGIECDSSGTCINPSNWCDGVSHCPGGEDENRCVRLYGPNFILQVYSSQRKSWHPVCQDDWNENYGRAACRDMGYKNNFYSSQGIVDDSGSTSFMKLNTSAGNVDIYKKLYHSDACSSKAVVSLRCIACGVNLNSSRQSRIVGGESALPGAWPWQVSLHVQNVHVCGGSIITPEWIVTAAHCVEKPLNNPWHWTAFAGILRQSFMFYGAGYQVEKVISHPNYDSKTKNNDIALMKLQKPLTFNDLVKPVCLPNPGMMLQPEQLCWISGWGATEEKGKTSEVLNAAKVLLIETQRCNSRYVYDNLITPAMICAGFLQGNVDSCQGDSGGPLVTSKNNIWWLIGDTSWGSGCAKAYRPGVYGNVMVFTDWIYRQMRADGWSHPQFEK
# T6 sequence (O15393 whole entry): as the sequence (O15393 whole entry) above
# T10 sequence (Q9JIQ8 whole entry): as the sequence (Q9JIQ8 whole entry) above
# Chain of Human TMPRSS2 expressed on cells (human) (O15393 whole entry): as the sequence (O15393 whole entry) above
# Chain of TMPRSS-11F (Q6ZWK6 54-438 limits assumed): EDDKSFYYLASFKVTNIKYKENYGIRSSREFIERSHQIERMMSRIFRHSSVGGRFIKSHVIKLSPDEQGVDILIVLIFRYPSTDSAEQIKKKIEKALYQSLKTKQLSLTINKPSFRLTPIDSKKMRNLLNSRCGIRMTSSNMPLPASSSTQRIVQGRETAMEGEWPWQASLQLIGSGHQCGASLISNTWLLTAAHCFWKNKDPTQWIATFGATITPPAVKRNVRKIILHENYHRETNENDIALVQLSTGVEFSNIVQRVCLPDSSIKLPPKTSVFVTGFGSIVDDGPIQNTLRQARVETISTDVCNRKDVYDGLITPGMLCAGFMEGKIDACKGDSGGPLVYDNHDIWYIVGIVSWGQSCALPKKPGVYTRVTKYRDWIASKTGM
# T7 sequence (O15393 whole entry F321A): as the sequence (O15393 whole entry) above, with F321A counted along it
Molecule,Q2 (percent of cells GFP+ and stained) [2],Kd [5] [nM],koff [5] [s⁻¹],kon [5] [M⁻¹ s⁻¹],Kd [6] [nM],"IC90, First run; live SARS-CoV-2 infection of Calu-3 cells [7] [µg/mL]","IC90, Second run; live SARS-CoV-2 infection of Calu-3 cells [7] [µg/mL]",Activity: Calu-3 Inhibiton [8],binding result [9],competition with 2228_15 antibody for binding to human TMPRSS2 (human TMPRSS2 [13]),ka (human TMPRSS2 [14]) [M⁻¹ s⁻¹],kd (human TMPRSS2 [14]) [s⁻¹],binding to peptide of SEQ ID NO: 85 [15],binding properties to the TMPRSS family [16],cross-reactivity to mouse TMPRSS2 (mouse TMPRSS2),Cross-reactivity [17],also measured
mIgG (antibody),1.51,–,–,–,–,–,–,–,–,–,–,–,–,–,–,–,Q2 (percent of cells GFP+ and stained) [1]: 0.011; Q2 (percent of cells GFP+ and stained) [3]: 0.12; Q2 (percent of cells GFP+ and stained) [4]: 0.015
"2114_16 antibody (antibody, V domains shown, also called 2114 antibody) VH: EVQLQQSGPELVKPGASVKISCKASGYTFTDYYMNWVKRRHGKSLEWIGNINPNNGGTSYNQKFKGKATLTVDKSSSTAYMELRSLTSEDSVVYYCAREGDLFPFAYWGQGTLVTVSA VL: QAVVTQESALTTSPGETVTLTCRSSIGTVTTSNFANWVQEKPDHLFTGLIGASNNRAPGVPARFSGSLIGDKAALTITGAQTEDEAIYFCALWFSNHWVFGGGTKLTVL",–,1.04,0.000591,570000,1,1.5,3.4,47.6,no binding (tested: 1 µg/mL),–,–,–,–,–,–,–,–
"1864_10 antibody (antibody, V domains shown) VH: QVQLQQSGPALVKPGASLKISCEASGYTFTYYSINWVKQRPGQGLEWIGWIFPGSGSTYYNEKFKGKATLTIDKSSSTAYMLLSSLTSEDSAVYFCARSDYGSAYGYFDVWGTGTTVTVSS VL: DIVLTQSPASLAVSLGQRATISCRASKSVSTSGYSYMHWYQQKPGQPPKLLIYLASNLESGVPARFSGSGSGTDFTLNIHPVEEEDAATYYCQHSRDLPLTFGAGTKLELK",2.27,5.14,0.00289,563000,5.1,0.11,0.16,67.6,–,–,–,–,–,–,–,–,binding result (TMPRSS-11D): no binding (tested: 10 µg/mL); binding result (TMPRSS-11E): no binding (tested: 10 µg/mL); binding result (TMPRSS-11F): no binding (tested: 10 µg/mL); binding result (TMPRSS-13): no binding (tested: 10 µg/mL); Q2 (percent of cells GFP+ and stained) (F321A): 7.85; Q2 (percent of cells GFP+ and stained) [10]: 10.5; Q2 (percent of cells GFP+ and stained) [11]: 98.1; Q2 (percent of cells GFP+ and stained) [12]: 100
"2020_12: mouse anti-human TMPRSS2 monoclonal antibody, IgG2c κ; VH SEQ ID NO: 25, VL SEQ ID NO: 26 (antibody, V domains shown, mouse IgG2c kappa constant regions; 2020_12 VH; 2020_12 VL) VH: QVQLQQPGAELAKPGASVKLSCKASGYTFTSYWMHWVKQRPGQGLEWIGLIPPNSGSSNYNEKFKSKATLTVDKSSRTAYMQLSSLTSEDSAVYYCARWDYGSSYGYFDVWGTGTTVTVSS VL: DIVLTQSPASLAVSLGQRATISCRASESVSTSGYSYMHWYQQKPGQPPKLLIYLASNLESGVPVRFSGSGSGTDFTLNIHPVEEEDAATYYCQHSRELPPTFGAGTKLELK",–,–,–,–,–,–,–,–,–,competed,654000,0.001759,particularly bound,bound specifically only to TMPRSS2,exhibited the cross-reactivity,Mouse,–
"1864_10: mouse anti-human TMPRSS2 monoclonal antibody, IgG2b κ; VH SEQ ID NO: 17, VL SEQ ID NO: 18 (antibody, V domains shown, mouse IgG2b kappa constant regions; 1864_10 VH; 1864_10 VL) VH: QVQLQQSGPALVKPGASLKISCEASGYTFTYYSINWVKQRPGQGLEWIGWIFPGSGSTYYNEKFKGKATLTIDKSSSTAYMLLSSLTSEDSAVYFCARSDYGSAYGYFDVWGTGTTVTVSS VL: DIVLTQSPASLAVSLGQRATISCRASKSVSTSGYSYMHWYQQKPGQPPKLLIYLASNLESGVPARFSGSGSGTDFTLNIHPVEEEDAATYYCQHSRDLPLTFGAGTKLELK",–,–,–,–,–,–,–,–,–,competed,563000,0.002894,particularly bound,bound specifically only to TMPRSS2,exhibited the cross-reactivity,Mouse,–
"1831_15 antibody (antibody, V domains shown) VH: QVQLQQPGAELVKPGASVKLSCKASGYSFTTYWMHWVRQRPGQGLEWIGIIHPNSGTTNYNEKFKSKASLTVDKSSSTAYMQLSSLTSEDSAVYYCARLLWDYFDYWGQGTTLTVSS VL: DIVMSQSPSSLAVSAGEKVTMSCKSSQSLLNSRTRKNFLAWYQQKPGQSPKLLIYWASTRESGVPDRFTGSGSGTDFTLTISSVQAEDLAVYYCKQSYNLYTFGGGTKLEIK",–,0.418,0.000236,563000,0.42,–,–,44.8,no binding (tested: 1 µg/mL),–,–,–,–,–,–,–,–
